Laboratory results: publication PMC4315244

Columns and labels:
[1] = target: Nup82-Flag-TEV-ProtA (S. cerevisiae) (UniProt P40368); assay: AUC + SEC
[2] = target: Nup82 (of the Nup82–Nup159tail–Flag-Nsp1C complex) (S. cerevisiae) (UniProt P40368); assay: SEC-MALS
Sequence of Nup82 (of the Nup82–Nup159tail–Flag-Nsp1C complex) (S. cerevisiae) (P40368 whole entry, one chain of several): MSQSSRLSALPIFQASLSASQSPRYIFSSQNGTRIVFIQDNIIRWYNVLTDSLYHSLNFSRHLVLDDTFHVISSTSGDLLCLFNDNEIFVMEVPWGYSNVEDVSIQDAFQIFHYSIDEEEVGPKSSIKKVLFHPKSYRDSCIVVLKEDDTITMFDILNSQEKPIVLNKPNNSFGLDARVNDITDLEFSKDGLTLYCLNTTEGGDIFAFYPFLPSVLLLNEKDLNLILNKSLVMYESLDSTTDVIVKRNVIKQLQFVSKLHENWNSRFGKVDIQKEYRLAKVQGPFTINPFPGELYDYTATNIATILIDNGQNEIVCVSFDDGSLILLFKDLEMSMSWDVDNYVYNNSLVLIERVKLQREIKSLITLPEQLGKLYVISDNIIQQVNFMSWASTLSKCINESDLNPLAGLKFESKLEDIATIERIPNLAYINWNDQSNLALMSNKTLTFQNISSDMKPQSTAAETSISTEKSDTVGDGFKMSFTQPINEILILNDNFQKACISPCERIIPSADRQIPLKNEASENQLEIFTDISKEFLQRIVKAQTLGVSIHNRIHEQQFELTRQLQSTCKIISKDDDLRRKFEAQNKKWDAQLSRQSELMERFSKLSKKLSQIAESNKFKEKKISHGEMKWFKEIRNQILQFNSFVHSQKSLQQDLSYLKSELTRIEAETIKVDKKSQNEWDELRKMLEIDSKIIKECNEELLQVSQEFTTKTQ

Sequence of Nup159 tail (domain or fragment) (P40477 whole entry, the tested form may be a part): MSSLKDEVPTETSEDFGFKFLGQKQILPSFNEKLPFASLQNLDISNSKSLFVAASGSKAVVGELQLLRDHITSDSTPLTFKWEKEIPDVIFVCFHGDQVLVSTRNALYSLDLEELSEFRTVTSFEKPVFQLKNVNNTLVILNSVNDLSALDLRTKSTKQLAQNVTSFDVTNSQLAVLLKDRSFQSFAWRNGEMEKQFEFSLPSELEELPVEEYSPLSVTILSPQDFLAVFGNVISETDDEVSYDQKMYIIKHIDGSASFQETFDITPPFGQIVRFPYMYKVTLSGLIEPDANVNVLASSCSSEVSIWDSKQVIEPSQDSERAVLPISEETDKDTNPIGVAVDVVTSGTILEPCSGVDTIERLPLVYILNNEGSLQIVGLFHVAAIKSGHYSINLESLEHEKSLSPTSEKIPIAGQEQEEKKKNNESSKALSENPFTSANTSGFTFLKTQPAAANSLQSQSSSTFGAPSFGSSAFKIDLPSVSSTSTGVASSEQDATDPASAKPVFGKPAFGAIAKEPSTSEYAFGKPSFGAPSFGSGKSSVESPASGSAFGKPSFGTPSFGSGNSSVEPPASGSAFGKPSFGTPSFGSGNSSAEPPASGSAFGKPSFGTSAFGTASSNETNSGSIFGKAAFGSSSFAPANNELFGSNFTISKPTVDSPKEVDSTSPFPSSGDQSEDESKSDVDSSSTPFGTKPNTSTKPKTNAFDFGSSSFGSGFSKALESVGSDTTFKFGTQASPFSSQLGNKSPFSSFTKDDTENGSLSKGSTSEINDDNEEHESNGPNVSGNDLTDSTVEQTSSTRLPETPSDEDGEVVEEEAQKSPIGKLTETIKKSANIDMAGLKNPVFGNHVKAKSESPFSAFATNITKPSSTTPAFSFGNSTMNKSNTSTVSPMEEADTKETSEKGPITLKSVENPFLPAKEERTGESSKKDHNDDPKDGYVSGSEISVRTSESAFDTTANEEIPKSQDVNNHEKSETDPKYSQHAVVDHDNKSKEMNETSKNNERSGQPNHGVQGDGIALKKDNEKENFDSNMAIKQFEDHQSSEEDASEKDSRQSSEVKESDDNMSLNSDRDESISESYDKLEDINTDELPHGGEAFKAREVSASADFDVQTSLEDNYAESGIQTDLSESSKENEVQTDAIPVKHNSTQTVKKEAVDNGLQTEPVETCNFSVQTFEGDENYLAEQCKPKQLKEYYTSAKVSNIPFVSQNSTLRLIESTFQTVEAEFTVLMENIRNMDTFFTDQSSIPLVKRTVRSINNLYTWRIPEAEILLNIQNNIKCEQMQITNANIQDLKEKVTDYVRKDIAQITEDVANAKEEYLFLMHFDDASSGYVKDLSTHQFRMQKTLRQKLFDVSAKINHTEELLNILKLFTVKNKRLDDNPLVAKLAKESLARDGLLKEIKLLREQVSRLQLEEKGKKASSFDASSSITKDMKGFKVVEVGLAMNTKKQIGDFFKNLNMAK
Sequence of Nup82-Flag-TEV-ProtA (P40368 whole entry): as the sequence (P40368 whole entry, one chain of several) above

Substance	stoichiometry N [1]	stoichiometry N [2]
Nup82-Flag-TEV-ProtA (from UniProt P40368 1-713) (natural protein; other documents disagree on this pair)	2	–
Nup159 tail (domain or fragment)	–	1
